Patent publication US20190002889

How the values were obtained:
[1] = system: T1, RspWYL1 (WP_046441785.1, Ruminococcus sp. N15.MGS-57 WYL1 accessory protein)
T1 sequence: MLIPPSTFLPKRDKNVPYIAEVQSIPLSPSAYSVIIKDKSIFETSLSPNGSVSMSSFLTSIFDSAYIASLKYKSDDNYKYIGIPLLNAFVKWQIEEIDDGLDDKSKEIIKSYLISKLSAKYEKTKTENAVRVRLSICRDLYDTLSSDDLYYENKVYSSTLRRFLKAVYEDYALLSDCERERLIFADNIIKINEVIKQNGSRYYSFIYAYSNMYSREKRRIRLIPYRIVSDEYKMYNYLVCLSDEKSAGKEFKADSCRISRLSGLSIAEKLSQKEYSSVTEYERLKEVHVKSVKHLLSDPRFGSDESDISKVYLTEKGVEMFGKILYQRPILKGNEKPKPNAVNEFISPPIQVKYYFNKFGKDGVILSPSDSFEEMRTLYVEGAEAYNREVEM

[2] = molecular target: T2, RspWYL1 (WP_046441785.1, Ruminococcus sp. N15.MGS-57 WYL1 accessory protein)
T2 chain: T1 sequence

Molecule: Bergeyella zoohelcum Cas13b (BzCas13b)
- in vitro ssRNA cleavage activity (denaturing gel) [1]: RspWYL1 enhanced the activity of BzCas13b

B1: RspCas13d (WP_046441786.1, Ruminococcus sp. N15.MGS-57 Type VI-D CRISPR-Cas effector) (protein)
chain: MAKKNKMKPRELREAQKKARQLKAAEINNNAAPAIAAMPAAEVIAPVAEKKKSSVKAAGMKSILVSKNKMYITSFGKGNSAVLEYEVDNNDYNQTQLSSKGSSNIELRGVNEVNITFSSKHGFESGVEINTSNPTHRSGESSPVRGDMLGLKSELEKRFFGKTFDDNIHIQLIYNILDIEKILAVYVTNIVYALNNMLSIKDSESYDDFMGYLSARNTYEVFTHPDKSNLSDKAKGNIKKSFSTFNDLLKTKRLGYFGLEEPKTKDTRVSQAYKKRVYHMLAIVGQIRQSVFHDKSSKLDEDLYSFIDIIDSEYRETLDYLVDERFDSINKGFIQGNKVNISLLIDMMKGYEADDIIRLYYDFIVLKSQKNLGFSIKKLREKMLDEYGFRFKDKQYDSVRSKMYKLMDFLLFCNYYRNDVVAGEALVRKLRFSMTDDEKEGIYADEASKLWGKFRNDFENIADHMNGDVIKELGKADMDFDEKILDSEKKNASDLLYFSKMIYMLTYFLDGKEINDLLTTLISKFDNIKEFLKIMKSSAVDVECELTAGYKLFNDSQRITNELFIVKNIASMRKPASSAKLTMFRDALTILGIDDNITDDRISEILKLKEKGKGIHGLRNFITNNVIESSRFVYLIKYANAQKIRKVAKNEKVVMFVLGGIPDTQIERYYKSCVEFPDMNSSLEVKRSELARMIKNISFDDFKNVKQQAKGRENVAKERAKAVIGLYLTVMYLLVKNLVNVNARYVIAIHCLERDFGLYKEIIPELASKNLKNDYRILSQTLCELCDKSPNLFLKKNERLRKCVEVDINNADSSMTRKYRNCIAHLTVVRELKEYIGDIRTVDSYFSIYHYVMQRCITKRENDTKQEEKIKYEDDLLKNHGYTKDFVKALNSPFGYNIPRFKNLSIEQLFDRNEYLTEK
- targeted and collateral ssRNA cleavage activity (in vitro ssRNA cleavage assay, denaturing gel) [2]: RspWYL1 increases both the targeted and collateral ssRNA cleavage activity of RspCas13d in a dose-dependent manner, with a molar excess of RspWYL1 yielding the greatest increase in Cas13d activity

B2: EsCas13d (WP_005358205.1, Eubacterium siraeum DSM 15702 Type VI-D CRISPR-Cas effector) (protein)
chain: MGKKIHARDLREQRKTDRTEKFADQNKKREAERAVPKKDAAVSVKSVSSVSSKKDNVTKSMAKAAGVKSVFAVGNTVYMTSFGRGNDAVLEQKIVDTSHEPLNIDDPAYQLNVVTMNGYSVTGHRGETVSAVTDNPLRRFNGRKKDEPEQSVPTDMLCLKPTLEKKFFGKEFDDNIHIQLIYNILDIEKILAVYSTNAIYALNNMSADENIENSDFFMKRTTDETFDDFEKKKESTNSREKADFDAFEKFIGNYRLAYFADAFYVNKKNPKGKAKNVLREDKELYSVLTLIGKLRHWCVHSEEGRAEFWLYKLDELKDDFKNVLDVVYNRPVEEINNRFIENNKVNIQILGSVYKNTDIAELVRSYYEFLITKKYKNMGFSIKKLRESMLEGKGYADKEYDSVRNKLYQMTDFILYTGYINEDSDRADDLVNTLRSSLKEDDKTTVYCKEADYLWKKYRESIREVADALDGDNIKKLSKSNIEIQEDKLRKCFISYADSVSEFTKLIYLLTRFLSGKEINDLVTTLINKFDNIRSFLEIMDELGLDRTFTAEYSFFEGSTKYLAELVELNSFVKSCSFDINAKRTMYRDALDILGIESDKTEEDIEKMIDNILQIDANGDKKLKKNNGLRNFIASNVIDSNRFKYLVRYGNPKKIRETAKCKPAVRFVLNEIPDAQIERYYEACCPKNTALCSANKRREKLADMIAEIKFENFSDAGNYQKANVTSRTSEAEIKRKNQAIIRLYLTVMYIMLKNLVNVNARYVIAFHCVERDTKLYAESGLEVGNIEKNKTNLTMAVMGVKLENGIIKTEFDKSFAENAANRYLRNARWYKLILDNLKKSERAVVNEFRNTVCHLNAIRNININIKEIKEVENYFALYHYLIQKHLENRFADKKVERDTGDFISKLEEHKTYCKDFVKAYCTPFGYNLVRYKNLTIDGLFDKNYPGKDDSDEQK
- targeted and collateral ssRNA nuclease activities (in vitro ssRNA cleavage assay, denaturing gel) [2]: RspWYL1 enhanced the targeted and collateral ssRNA nuclease activities of EsCas13d to a similar extent as observed for RspCas13d
